# Assay results taken from PMC13360575.
# Numbering of substitutions follows the chain as printed.
# B1: Fab fragment of a high-affinity variant of clone 2.1 (2.1^hi) (Fab, V domains shown)
# VH: EVQLQESGPSLVKPSQTLSLTCSVTGASITSGYWNWIRKFPGNRLEYMGYISYSGGTYYNPSLKSRISITRDTSKNQYYLQLNSVTTEDTATYYCARDFDVWGAGTTVTVSS
# VL: DIVMTQSQKFMSTSVGDRVSVTCKASQNVGTNVGWFQQKPGQSPKSLIYSASYRYSGVPDRFTGSGSGTDFTLTISNVQSEDLAEYFCHQYYSYPLTFGSGTKLEIK
# B2: clone 2.1 Fab TA_4 (Fab, V domains shown)
# VH: B1 VH with A27D, R44K, G56S
# VL: B1 VL with G34V, F36Y, S46A, H89Q, Y92D
# How the values were obtained:
# [1] = target: chicken IgY (chicken); experiment: BLI; Octet, SAX (streptavidin) biosensors; Fabs at multiple concentrations; KD from a kinetic 1:1 model, global fits (R^2 > 0.98); as described previously (ref. 7)
# [2] = target: chicken IgY (chicken); experiment: BLI; Octet, SAX (streptavidin) biosensors; recombinant Fabs against IgY; KD from a kinetic 1:1 model, global fit over multiple concentrations (partial fits averaged for 3 low-affinity Fabs)
Binder,Kd [1] [nM],Kd [2] [nM],koff [2] [s⁻¹],kon [2] [M⁻¹ s⁻¹]
B1,0.062,,,
B2,,71.1,0.00792,111000
